Measured values as given in patent publication US20250262210A1 (TRUSTEES OF COLUMBIA UNIVERSITY IN THE CITY OF NEW YORK, published 2025).

Legend:
Test in all cases: IP/MS, LZTR1 wild type-FLAG, U87
[1] = biological target: TTI1 (human, UniProt O43156 1-1089)
Method in brief: (§1)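 Read-out: spectral counts from LC-MS/MS (Orbitrap Fusion) after MaxQuant identification. Variable modifications were Met oxidation, protein N-terminal acetylation and N/Q deamidation.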

[2] = biological target: KIF1B (human, UniProt O60333 2-1816, limits assumed)
Method in brief: as §1

[3] = biological target: RNF213 (human, UniProt Q63HN8 1-5207, limits assumed)
Method in brief: as §1

[4] = biological target: KNL1 (human, UniProt Q8NG31 1-2342, limits assumed)
Method in brief: as §1

[5] = biological target: T1, AMBRA1 (human, UniProt Q9C0C7 1-1298, limits assumed)
T1 sequence (looked up): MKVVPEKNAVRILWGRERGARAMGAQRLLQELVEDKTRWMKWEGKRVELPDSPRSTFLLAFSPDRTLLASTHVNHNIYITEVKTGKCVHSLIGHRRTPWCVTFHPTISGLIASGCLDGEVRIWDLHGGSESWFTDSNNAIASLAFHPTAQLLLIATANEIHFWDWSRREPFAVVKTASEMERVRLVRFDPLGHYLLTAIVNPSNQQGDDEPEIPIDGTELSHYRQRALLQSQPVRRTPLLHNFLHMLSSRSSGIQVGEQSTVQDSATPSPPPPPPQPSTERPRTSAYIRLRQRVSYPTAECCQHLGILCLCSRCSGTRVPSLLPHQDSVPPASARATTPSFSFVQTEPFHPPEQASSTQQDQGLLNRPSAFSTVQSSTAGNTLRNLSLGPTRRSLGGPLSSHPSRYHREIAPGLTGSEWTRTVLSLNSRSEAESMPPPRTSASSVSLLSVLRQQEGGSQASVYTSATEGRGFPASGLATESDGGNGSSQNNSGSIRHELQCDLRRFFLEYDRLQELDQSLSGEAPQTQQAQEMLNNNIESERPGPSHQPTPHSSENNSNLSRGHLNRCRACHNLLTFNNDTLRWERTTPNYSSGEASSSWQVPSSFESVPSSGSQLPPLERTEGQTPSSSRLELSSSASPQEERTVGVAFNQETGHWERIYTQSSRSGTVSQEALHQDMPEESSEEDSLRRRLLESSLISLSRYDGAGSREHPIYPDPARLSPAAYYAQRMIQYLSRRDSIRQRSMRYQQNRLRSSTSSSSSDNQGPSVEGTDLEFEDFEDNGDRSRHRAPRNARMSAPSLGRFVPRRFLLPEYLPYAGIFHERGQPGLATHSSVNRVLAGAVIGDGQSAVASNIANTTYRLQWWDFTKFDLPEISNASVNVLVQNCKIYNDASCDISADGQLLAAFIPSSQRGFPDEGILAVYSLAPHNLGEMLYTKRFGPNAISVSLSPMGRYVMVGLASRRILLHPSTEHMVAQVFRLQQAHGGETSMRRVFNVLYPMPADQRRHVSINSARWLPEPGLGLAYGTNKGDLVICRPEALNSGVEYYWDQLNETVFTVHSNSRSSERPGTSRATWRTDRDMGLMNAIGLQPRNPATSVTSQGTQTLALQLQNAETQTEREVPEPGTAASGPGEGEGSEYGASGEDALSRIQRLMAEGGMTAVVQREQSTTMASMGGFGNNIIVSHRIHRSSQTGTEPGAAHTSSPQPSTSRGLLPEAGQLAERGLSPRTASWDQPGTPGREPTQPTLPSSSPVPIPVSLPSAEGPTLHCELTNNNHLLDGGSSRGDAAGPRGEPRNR
Method in brief: as §1

[6] = biological target: BRCA2 (human, UniProt P51587 1-3418)
Method in brief: as §1

[7] = biological target: ALPK2 (human, UniProt Q86TB3 1-2170)
Method in brief: as §1

Measured: binding result

Sequence of KIF1B (O60333 2-1816 limits assumed): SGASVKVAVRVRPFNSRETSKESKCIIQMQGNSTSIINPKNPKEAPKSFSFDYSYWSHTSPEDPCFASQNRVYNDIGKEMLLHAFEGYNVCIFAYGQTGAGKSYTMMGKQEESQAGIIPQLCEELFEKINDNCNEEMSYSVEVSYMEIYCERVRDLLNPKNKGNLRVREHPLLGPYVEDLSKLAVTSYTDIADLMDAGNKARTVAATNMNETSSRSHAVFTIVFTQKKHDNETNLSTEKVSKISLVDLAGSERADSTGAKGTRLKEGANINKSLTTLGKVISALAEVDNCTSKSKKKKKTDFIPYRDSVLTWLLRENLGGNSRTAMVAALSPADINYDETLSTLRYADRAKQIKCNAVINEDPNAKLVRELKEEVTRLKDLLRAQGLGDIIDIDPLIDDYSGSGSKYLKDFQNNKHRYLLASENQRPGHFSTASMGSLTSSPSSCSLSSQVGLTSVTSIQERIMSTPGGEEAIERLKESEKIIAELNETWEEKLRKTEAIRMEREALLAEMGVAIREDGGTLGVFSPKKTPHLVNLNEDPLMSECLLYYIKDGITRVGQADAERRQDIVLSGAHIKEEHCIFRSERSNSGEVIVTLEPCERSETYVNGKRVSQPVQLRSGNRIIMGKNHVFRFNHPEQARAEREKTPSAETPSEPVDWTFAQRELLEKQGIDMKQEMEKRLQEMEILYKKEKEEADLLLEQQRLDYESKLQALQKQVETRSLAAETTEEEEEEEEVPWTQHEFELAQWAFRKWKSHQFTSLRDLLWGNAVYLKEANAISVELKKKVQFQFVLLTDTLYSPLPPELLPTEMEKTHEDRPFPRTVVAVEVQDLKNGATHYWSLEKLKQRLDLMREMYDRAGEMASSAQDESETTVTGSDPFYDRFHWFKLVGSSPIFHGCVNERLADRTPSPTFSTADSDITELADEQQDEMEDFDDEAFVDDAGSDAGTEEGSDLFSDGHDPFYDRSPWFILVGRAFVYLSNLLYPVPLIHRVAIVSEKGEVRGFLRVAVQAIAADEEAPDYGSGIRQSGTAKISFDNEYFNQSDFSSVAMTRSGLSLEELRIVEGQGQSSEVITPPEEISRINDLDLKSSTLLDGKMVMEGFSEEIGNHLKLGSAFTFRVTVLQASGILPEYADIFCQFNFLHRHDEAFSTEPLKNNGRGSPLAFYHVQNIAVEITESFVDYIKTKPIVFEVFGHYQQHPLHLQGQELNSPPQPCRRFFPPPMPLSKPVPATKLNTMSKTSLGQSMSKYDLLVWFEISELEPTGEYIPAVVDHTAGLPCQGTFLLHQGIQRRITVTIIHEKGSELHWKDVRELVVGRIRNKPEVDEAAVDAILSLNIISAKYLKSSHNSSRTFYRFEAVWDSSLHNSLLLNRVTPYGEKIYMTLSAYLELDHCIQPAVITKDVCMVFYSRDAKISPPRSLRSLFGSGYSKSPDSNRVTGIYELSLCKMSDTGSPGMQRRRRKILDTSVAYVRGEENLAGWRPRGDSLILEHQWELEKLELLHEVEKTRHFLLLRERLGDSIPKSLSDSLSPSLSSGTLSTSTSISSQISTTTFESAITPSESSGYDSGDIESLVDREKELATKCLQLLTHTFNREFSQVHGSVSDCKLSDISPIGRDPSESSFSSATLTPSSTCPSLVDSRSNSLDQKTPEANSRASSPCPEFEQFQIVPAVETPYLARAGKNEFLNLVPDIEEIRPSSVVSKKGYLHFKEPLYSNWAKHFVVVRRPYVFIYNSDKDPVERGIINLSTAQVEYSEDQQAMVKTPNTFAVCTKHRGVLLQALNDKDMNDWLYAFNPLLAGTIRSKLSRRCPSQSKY
Sequence of KNL1 (Q8NG31 whole entry): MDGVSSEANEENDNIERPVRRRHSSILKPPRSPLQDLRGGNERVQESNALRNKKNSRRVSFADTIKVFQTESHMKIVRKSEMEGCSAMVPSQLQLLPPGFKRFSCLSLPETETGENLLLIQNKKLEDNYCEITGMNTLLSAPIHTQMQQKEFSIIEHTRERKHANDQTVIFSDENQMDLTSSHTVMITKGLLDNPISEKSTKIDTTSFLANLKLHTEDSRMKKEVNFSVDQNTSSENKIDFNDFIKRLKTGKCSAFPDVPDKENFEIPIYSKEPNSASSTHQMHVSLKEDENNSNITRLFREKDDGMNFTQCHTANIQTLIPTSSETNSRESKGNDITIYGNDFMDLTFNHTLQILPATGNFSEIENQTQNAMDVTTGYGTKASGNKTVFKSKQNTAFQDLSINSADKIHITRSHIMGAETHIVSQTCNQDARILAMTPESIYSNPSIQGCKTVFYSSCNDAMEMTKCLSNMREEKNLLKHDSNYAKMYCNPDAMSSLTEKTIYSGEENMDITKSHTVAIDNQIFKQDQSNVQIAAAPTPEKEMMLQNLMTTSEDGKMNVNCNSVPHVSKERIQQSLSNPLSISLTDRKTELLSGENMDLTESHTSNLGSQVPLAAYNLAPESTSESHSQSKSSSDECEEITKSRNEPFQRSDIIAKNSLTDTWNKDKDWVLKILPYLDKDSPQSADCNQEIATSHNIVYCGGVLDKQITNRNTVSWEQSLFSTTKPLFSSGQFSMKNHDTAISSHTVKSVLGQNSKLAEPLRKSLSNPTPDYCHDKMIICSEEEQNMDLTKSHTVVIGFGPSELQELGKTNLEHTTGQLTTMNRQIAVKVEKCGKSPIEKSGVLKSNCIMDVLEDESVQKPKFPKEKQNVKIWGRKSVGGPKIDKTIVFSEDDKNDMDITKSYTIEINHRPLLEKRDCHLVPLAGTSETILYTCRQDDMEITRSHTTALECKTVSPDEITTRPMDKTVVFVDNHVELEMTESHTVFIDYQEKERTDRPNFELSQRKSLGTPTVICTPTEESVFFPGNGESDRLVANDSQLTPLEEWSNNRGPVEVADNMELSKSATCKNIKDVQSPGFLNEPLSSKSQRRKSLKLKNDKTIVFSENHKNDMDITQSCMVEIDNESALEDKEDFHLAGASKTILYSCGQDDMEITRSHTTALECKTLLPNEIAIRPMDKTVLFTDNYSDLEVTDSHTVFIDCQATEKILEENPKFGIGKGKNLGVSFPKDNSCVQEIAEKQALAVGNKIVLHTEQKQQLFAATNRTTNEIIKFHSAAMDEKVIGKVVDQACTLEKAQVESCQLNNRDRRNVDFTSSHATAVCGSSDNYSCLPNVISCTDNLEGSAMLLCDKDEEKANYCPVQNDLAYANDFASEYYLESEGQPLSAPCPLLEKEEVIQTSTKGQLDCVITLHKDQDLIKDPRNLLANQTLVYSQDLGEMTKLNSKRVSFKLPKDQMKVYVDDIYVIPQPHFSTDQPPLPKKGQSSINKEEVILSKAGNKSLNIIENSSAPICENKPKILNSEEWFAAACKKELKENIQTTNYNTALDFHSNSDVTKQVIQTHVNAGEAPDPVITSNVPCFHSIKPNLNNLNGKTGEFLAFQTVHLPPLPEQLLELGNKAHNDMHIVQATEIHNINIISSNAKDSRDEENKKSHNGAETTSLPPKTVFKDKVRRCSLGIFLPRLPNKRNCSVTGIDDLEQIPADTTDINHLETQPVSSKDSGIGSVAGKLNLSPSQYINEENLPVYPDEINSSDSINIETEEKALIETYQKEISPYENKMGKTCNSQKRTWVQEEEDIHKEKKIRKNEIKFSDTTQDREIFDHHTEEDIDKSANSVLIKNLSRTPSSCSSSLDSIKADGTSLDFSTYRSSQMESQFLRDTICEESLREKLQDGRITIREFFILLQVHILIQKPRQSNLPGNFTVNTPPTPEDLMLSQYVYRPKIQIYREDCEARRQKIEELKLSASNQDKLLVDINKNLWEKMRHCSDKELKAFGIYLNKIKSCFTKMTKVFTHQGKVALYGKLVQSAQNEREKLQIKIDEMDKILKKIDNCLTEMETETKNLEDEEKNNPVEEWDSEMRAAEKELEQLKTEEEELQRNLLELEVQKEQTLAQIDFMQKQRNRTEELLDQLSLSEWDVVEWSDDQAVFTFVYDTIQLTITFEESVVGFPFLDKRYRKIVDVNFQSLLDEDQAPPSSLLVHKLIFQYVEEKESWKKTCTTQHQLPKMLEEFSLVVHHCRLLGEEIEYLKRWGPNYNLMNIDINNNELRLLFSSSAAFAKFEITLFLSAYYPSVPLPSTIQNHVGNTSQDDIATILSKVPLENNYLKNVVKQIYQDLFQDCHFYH

B1: LZTR1-FLAG (other, human, UniProt Q8N653 1-840, looked up)
chain: MAGPGSTGGQIGAAALAGGARSKVAPSVDFDHSCSDSVEYLTLNFGPFETVHRWRRLPPCDEFVGARRSKHTVVAYKDAIYVFGGDNGKTMLNDLLRFDVKDCSWCRAFTTGTPPAPRYHHSAVVYGSSMFVFGGYTGDIYSNSNLKNKNDLFEYKFATGQWTEWKIEGRLPVARSAHGATVYSDKLWIFAGYDGNARLNDMWTIGLQDRELTCWEEVAQSGEIPPSCCNFPVAVCRDKMFVFSGQSGAKITNNLFQFEFKDKTWTRIPTEHLLRGSPPPPQRRYGHTMVAFDRHLYVFGGAADNTLPNELHCYDVDFQTWEVVQPSSDSEVGGAEVPERACASEEVPTLTYEERVGFKKSRDVFGLDFGTTSAKQPTQPASELPSGRLFHAAAVISDAMYIFGGTVDNNIRSGEMYRFQFSCYPKCTLHEDYGRLWESRQFCDVEFVLGEKEECVQGHVAIVTARSRWLRRKITQARERLAQKLEQEAAPVPREAPGVAAGGARPPLLHVAIREAEARPFEVLMQFLYTDKIKYPRKGHVEDVLLIMDVYKLALSFQLCRLEQLCRQYIEASVDLQNVLVVCESAARLQLSQLKEHCLNFVVKESHFNQVIMMKEFERLSSPLIVEIVRRKQQPPPRTPLDQPVDIGTSLIQDMKAYLEGAGAEFCDITLLLDGHPRPAHKAILAARSSYFEAMFRSFMPEDGQVNISIGEMVPSRQAFESMLRYIYYGEVNMPPEDSLYLFAAPYYYGFYNNRLQAYCKQNLEMNVTVQNVLQILEAADKTQALDMKRHCLHIIVHQFTKVSKLPTLRSLSQQLLLDIIDSLASHISDKQCAELGADI
notes: Expressed in HEK 293T, HeLa or U87 cells; used as cell lysate; also called LZTR1 wild type-FLAG; LZTR1 WT; not shown: FLAG tag at the C-terminus
binds: all assays above
